Experimental data as given in article PMC7017226.

Assays:
[1] = molecular target: Stromal interacting molecule 2 (STIM2) (rat (endogenous in primary cortical neurons)); test: proximity ligation; Duolink in situ PLA on fixed 17-day-old rat cortical neurons; rabbit anti-STIM1 or anti-STIM2 with mouse anti-NR2A or anti-NR2B; cells treated 10 min with 2 mM CaCl2 (control) or 2 uM TG in 0.5 mM EGTA; PLA signals per cell counted in ImageJ
[2] = molecular target: Stromal interacting molecule 1 (STIM1) (rat (endogenous in primary cortical neurons)) (UniProt P84903); test: as above
Chain of Stromal interacting molecule 1 (STIM1) (rat (endogenous in primary cortical neurons)) (P84903 23-685): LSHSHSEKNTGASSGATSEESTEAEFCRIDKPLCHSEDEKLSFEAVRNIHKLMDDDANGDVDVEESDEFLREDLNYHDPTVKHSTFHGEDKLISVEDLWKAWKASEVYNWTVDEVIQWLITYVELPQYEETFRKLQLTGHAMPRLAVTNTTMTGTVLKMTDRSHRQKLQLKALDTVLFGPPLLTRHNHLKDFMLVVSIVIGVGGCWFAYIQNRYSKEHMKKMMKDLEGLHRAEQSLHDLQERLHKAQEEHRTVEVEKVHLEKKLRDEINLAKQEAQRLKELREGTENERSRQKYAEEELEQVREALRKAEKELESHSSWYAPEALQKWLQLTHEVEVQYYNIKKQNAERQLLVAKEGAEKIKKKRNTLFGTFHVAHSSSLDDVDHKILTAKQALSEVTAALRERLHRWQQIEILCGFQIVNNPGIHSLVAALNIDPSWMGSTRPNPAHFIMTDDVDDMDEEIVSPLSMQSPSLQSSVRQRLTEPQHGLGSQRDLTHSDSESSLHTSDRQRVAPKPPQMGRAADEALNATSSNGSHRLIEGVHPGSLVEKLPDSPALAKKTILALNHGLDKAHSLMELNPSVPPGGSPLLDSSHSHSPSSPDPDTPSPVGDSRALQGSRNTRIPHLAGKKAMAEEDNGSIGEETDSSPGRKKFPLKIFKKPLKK

Chain of NMDA receptor subunit NR2B, Q00960 27-1482 (receptor; other documents disagree on this pair) (Q00960 27-1482): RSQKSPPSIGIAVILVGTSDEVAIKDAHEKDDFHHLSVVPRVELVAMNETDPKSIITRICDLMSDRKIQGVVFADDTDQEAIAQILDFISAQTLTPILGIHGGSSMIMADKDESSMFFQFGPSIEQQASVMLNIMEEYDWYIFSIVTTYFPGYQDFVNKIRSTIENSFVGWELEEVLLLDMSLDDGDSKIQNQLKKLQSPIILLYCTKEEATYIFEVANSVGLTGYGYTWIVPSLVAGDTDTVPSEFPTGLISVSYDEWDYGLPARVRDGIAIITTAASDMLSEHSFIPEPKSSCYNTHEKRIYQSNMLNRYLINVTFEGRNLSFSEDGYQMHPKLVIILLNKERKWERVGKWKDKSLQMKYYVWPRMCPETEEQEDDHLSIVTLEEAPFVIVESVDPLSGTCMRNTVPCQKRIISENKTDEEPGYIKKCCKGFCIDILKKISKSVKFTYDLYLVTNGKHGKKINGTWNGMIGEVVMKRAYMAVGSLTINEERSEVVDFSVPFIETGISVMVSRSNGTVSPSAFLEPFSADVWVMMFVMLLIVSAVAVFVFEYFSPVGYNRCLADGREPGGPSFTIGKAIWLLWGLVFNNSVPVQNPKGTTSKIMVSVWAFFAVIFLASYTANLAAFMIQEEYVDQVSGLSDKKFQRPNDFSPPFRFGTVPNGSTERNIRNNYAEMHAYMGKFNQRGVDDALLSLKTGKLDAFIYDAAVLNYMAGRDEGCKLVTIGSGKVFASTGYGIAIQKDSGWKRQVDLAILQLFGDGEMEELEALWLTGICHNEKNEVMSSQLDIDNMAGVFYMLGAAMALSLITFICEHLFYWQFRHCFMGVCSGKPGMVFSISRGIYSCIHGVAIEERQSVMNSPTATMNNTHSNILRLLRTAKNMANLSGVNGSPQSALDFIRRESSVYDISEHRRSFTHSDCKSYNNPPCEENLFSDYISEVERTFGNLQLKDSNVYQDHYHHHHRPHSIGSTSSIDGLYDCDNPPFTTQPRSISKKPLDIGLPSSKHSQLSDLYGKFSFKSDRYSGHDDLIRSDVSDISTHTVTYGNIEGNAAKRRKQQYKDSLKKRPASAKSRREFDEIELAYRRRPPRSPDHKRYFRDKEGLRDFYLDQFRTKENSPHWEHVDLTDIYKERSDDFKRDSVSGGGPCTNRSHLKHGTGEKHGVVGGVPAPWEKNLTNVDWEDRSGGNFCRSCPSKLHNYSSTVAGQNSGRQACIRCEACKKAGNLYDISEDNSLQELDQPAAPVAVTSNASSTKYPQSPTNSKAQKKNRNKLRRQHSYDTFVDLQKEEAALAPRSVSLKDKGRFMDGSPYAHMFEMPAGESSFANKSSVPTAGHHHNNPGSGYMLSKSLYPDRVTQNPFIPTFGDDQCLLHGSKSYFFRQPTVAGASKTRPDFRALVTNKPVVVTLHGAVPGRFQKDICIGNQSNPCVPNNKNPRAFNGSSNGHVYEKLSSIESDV
Chain of NMDA receptor subunit NR2A (Q00959 23-1464): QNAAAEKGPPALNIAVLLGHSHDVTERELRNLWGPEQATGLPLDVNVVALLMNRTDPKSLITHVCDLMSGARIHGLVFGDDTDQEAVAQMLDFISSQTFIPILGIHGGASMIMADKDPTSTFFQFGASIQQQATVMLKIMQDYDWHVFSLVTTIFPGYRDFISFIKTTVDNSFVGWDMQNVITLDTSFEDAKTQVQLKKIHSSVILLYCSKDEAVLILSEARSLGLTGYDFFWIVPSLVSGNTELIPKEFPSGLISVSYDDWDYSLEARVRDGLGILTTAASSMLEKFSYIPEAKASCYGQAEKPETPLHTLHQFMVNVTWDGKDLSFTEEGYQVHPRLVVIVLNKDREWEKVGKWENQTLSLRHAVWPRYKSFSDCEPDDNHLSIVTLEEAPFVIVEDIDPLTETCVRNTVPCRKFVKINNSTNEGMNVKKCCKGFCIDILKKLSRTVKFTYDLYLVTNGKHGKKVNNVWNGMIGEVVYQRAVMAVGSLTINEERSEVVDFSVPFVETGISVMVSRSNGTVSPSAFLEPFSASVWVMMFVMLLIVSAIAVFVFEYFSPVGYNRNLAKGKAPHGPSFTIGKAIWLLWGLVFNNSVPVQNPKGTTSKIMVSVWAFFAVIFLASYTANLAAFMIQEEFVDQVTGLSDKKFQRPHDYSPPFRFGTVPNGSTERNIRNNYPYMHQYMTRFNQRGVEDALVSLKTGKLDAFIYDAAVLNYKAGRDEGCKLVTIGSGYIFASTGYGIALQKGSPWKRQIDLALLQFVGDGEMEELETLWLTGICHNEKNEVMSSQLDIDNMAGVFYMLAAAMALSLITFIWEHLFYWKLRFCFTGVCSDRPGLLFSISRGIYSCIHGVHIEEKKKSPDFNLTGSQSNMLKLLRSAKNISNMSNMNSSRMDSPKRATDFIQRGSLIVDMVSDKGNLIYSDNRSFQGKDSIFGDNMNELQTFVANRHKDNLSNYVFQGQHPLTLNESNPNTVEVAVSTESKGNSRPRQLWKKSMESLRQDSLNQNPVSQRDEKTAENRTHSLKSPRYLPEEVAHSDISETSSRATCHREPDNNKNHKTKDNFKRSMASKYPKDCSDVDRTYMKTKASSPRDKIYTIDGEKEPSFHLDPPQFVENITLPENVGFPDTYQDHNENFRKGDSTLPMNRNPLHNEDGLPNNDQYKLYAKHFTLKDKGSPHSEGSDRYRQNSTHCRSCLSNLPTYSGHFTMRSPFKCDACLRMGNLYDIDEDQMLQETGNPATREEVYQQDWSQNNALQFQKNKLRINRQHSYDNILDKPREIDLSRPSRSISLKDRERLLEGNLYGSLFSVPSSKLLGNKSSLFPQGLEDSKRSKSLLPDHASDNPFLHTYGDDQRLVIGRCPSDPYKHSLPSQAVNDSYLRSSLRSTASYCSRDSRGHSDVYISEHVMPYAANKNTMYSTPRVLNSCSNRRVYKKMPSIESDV

Row | PLA complexes per cell (complexes per cell) [1] | PLA complexes per cell (complexes per cell) [2] | Substance
1 | 3.78 | – | NMDA receptor subunit NR2A (from UniProt Q00959 23-1464)
2 | – | 57.2 | NMDA receptor subunit NR2B, Q00960 27-1482 (receptor; other documents disagree on this pair)
